Results on one molecule are retold here after US20260144818A1, “ARMED CHIMERIC RECEPTORS AND METHODS OF USE THEREOF” (Senti Biosciences, Inc., priority 2022, published 2026).

This assay concerns tumor target cells that constitutively express a fluorescent reporter (mKate). As to the kind of experiment: Serial killing screen of IL15 formats and combinations with IL21 or IL7. Format: cell-based. The procedure: 6 to 7 days after transduction, NK cells were collected, counted and seeded in a co-culture with tumor target cells that constitutively express a fluorescent reporter (mKate) at the appropriate effector to target (E:T) ratios. Tumor target cell growth (area) was quantified using an imaging-based system (Incucyte, Sartorius). After 48 to 72 hours of co-culture, new target cells were plated, and the NK cells were collected from the original plates and transferred to newly seeded targets for a 2nd or 3rd tumor re-challenge (serial killing). Target cell area was quantified and compared across different conditions. […] Similar serial target cell killing is shown at a different E:T ratio in FIG. 60E.
Additionally, various constructions of a chimeric protein containing IL15 tethered to the IL15 receptor (FIG. 61A) was tested.

B1: IL7 with crIL15: CAR-NK cells co-expressing IL7 (SEQ ID NO: 394) with crIL15 (protein, UniProt P13232 26-177, looked up)
Interleukin-7: DCDIEGKDGKQYESVLMVSIDQLLDSMKEIGSNCLNNEFNFFKRHICDANKEGMFLFRAARKLRQFLKMNSTGDFDLHLLKVSEGTTILLNCTGQVKGRKPAALGEAQPTKSLEENKSLKEQKKLNDLCFLKRLLQEIKTCWNKILMGTKEH
For B1, the “serial target cell killing” value is on record as “no improvement in serial target cell killing”.
